# Experimental data from paper PMC6862768 (Nature, 2019).
# B1: full-length chicken STING, cGAMP-bound (natural protein, UniProt E1C7U0 1-379, looked up)
# chain: MPQDPSTRSSPARLLIPEPRAGRARHAACVLLAVCFVVLFLSGEPLAPIIRSVCTQLAALQLGVLLKGCCCLAEEIFHLHSRHHGSLWQVLCSCFPPRWYLALLLVGGSAYLDPPEDNGHSPRLALTLSCLCQLLVLALGLQKLSAVEVSELTESSKKNVAHGLAWSYYIGYLKVVLPRLKECMEELSRTNPMLRAHRDTWKLHILVPLGCDIWDDLEKADSNIQYLADLPETILTRAGIKRRVYKHSLYVIRDKDNKLRPCVLEFASPLQTLCAMSQDDCAAFSREQRLEQARLFYRSLRDILGSSKECAGLYRLIAYEEPAEPESHFLSGLILWHLQQQQREEYMVQEELPLGTSSVELSLQVSSSDLPQPLRSDCP
# Biological target: the molecule itself
# Assay: cryo-EM structure
protein,measurement,value
B1,stoichiometry N,2
